Reference: article PMC4703387, “Identification of the Calmodulin-Binding Domains of Fas Death Receptor” (PLoS ONE, 2016)
Where two headings read alike, the source gives them in different places.

Columns and labels:
[1] = molecular target: calmodulin (Homo sapiens) (UniProt P0DP23); conditions: cited from earlier work
[2] = molecular target: calmodulin (Homo sapiens) (UniProt P0DP23); conditions: cited from earlier work; remark: listed apart in the source
[3] = molecular target: calmodulin, calcium-bound (Ca2+/CaM) (UniProt P0DP23); assay: SEC; Superdex 75 (10/300 GL), 50 mM Tris pH 7.0, 100 mM NaCl, 5 mM CaCl2; samples ~50-150 uM; fractions by SDS-PAGE; calibration with a low molecular weight kit
[4] = molecular target: Fas-Pep1 (FasDD residues 209-239); assay: ITC; Ca2+/CaM at 450 uM titrated into Fas-Pep1 at 25 uM, 25°C, 50 mM HEPES pH 7.0, 100 mM NaCl, 5 mM CaCl2; single set of identical sites
[5] = molecular target: Fas-Pep2 (FasDD residues 251-288); assay: ITC; Ca2+/CaM at 195 uM titrated into Fas-Pep2 at 17 uM, 35°C, 50 mM HEPES pH 7.0, 100 mM NaCl, 5 mM CaCl2; single set of identical sites

In the case of “Fas death domain death domain (from UniProt P25445)”, the Kd [1] is given as 2000 nM.

In the case of “Fas death domain peptide 214-238 (from UniProt P25445)”, the Kd [2] is listed as 19500 nM.

With “Fas-Pep1 (FasDD residues 209-239) (peptide)” the stoichiometry N [3] was 1.

“Fas-Pep2 (FasDD residues 251-288) (peptide)” showed a stoichiometry N [3] of 1.

With “calmodulin, calcium-bound (Ca2+/CaM) (from UniProt P0DP23 1-149) (natural protein)” the Kd [4] was 300 nM, the dH [4] was 2.15 kcal/mol and the stoichiometry N [4] was 0.95. For the same substance, the Kd [5] was 1100 nM, the dH [5] was -14.2 kcal/mol and the stoichiometry N [5] was 0.9.
